Results from patent US20220098328A1, “ANTIBODIES TO M(H)DM2/4 AND THEIR USE IN DIAGNOSING AND TREATING CANCER” (NomoCan Pharmaceuticals LLC, priority 2017, published 2022).
Positions count from the first letter of the chain named. Entries after “also recorded” stand apart in the source; their conditions may differ.

B1: NMC-204: mouse monoclonal antibody of the IgG3 isotype that binds to NMC-P2 (SEQ ID NO:2); VH SEQ ID NO:38, VL SEQ ID NO:39 (antibody, V domains shown)
VH: EVQLQESGSVLVRPGASVKLSCKASGDTLSGSWMHWAMQRPGQGLEWIGEIHLNRGTTNYNEKFKGKATVTVDTSSSTAYVDLSSLTSEDSAVYYCARSPGFAYWGQGTLVTVSA
VL: GIVMTQAAPSVPVTPGESVSISCRSSKSLLHSNGNSYLYWFLQRPGQSPQLLIYRMSNLASGVPDRFSGSGSGTAFTLRITRVEAEDVGVYYCMQHLEYPFTFGSGTKLEIK
modifications: mAb NMC-204 Heavy Chain Variable Region; mAb NMC-204 Light Chain Variable Region
B2: NMC-103: mouse monoclonal antibody of the IgG1 isotype that binds to NMC-P1 (SEQ ID NO:1); VH SEQ ID NO:36, VL SEQ ID NO:37 (antibody, V domains shown)
VH: EVQLQESGGGLVQPGGSLRLSCTTSGFTFTHYYMSWVRQPPGKALEWLGFIRNKAKGYTAEYSASVKGRFTISRDNSQSILYLQMNTLRPEDSATYYCARDIGDNWGQGTLVTVSS
VL: DIVMTQAAFSNPVTLGTSASISCRSSKNLLHSNGITYLYWYLQRPGQSPQLLISRVSNLASGVPNRFSGSESGTDFTLRISRVEAEDVGVYFCAQLLELPYTFGGGTKLEIK
modifications: mAb NMC-103 Heavy Chain Variable Region; mAb NMC-103 Light Chain Variable Region
B3: NMC-H103 (VH4/VK3): humanized NMC-103 variant, human IgG1, VH4 (SEQ ID NO:299) and VK3 (SEQ ID NO:297) (antibody, V domains shown)
VH: B2 VH with Q5V, G16P, P40A, A44G, Q78K, I80T, T87S, P90A, S93T, T95V
VL: B2 VL with A7T, A8P, F9L, N11S, T17Q, S18P, R44K, N65D, R79K, L109V
modifications: human IgG1 constant regions lacking entries; mAb NMC-H103.VH4Heavy Chain Variable Region; mAb NMC-H103.VK3Light Chain Variable Region

Columns and labels:
Experiment in all cases: Cell-ELISA on intact cells
Format in all cases: cell-based
[1] = system: human breast cancer MCF-7 cells; conditions: for relative binding (reactivity) to intact cells, cell-ELISA: MCF-7, mAb 1 μg/mL, fixed, non-permeabilized cells
Protocol: (§1) Cell-ELISA Methodology: 8,000-10,000 cells/well of a 96-well microplate were grown overnight. The next day, unbound cells were washed off with sterile 1×PBS. The cells in each well were fixed with freshly prepared 4% buffered paraformaldehyde (pH 7.2) for 1 hour followed by 3 washes with 1×PBS. The wells were then blocked with 5% BSA in PBS (100 μl/well) for 2 hours at room temperature. Microplate wells were then washed 5 times with 300 μl of ice cold 1×PBS. MAbs NMC-103, NMC-204 or NMC-303 at 1 μg/mL in 1% BSA/PBS were then incubated with various cancer or normal untransformed cells for 2 hours at room temperature. Wells were then washed with 300 μl of ice-cold 1×PBS for 5 times and corresponding secondary antibody HRP-GaM F(ab′)2 diluted 1:2500 or 1:5000 in PBS with 1% BSA were added at 100 μl/well for 1 hour at room temperature followed by washing 5 times with 300 μl of ice-cold 1×PBS. TMB Substrate Solution (1-Step™ Ultra TMB-ELISA, ThermoFisher, Cat. No. 34028) was then added at 50 μL to each microplate well and incubated at room temperature for 30 minutes. The reaction was stopped by addition of 50 μL of stop solution (ThermoFisher, Cat. No. SS04) to each well and absorbance of each well was measured at OD450 nm. The absorbance value of each experimental well was corrected for the absorbance value obtained from wells treated with isotype-identical mAbs included in each experiment. The results are thus expressed as “relative binding”.
(§2) In a 96-well microplate, 15,000 cells/well were cultured overnight. The next day, unbound cells were washed off with sterile 1×PBS. The cells in each well were fixed with freshly prepared 4% buffered paraformaldehyde (pH 7.2) for 1 hour, followed by 3 washes with 1×PBS. The wells were then blocked with 5% BSA in PBS (100 μl/well) for 2 hours at room temperature. Microplate wells were then washed 5 times with 300 μl of ice cold 1×PBS. Monoclonal antibodies NMC-H103 (VH4/VK3) or NMC-C303 at 5 μg/mL in 1% BSA/PBS were then incubated with various cancer cells for 2 hours at room temperature. Wells were then washed with 300 μl of ice-cold 1×PBS for 5 times and corresponding secondary antibody HRP-GaH F(ab′)2 diluted 1:2000 or 1:4000 in PBS with 1% BSA were added at 100 μl/well for 1 hour at room temperature followed by washing 5 times with 300 μl of ice-cold 1×PBS. TMB Substrate Solution (1-Step™ Ultra TMB-ELISA, ThermoFisher, Cat. No. 34028) was then added at 50 μL to each microplate well and incubated at room temperature for 30 minutes. The reaction was stopped by addition of 50 μL of stop solution (ThermoFisher, Cat. No. SS04) to each well and absorbance of each well was measured at OD450 nm. The absorbance value of each experimental well was corrected for the absorbance value obtained from wells treated with isotype-identical mAbs included in each experiment.

[2] = system: human melanoma A2058 cells; conditions: for relative binding (reactivity) to intact cells, cell-ELISA: A2058, mAb 1 μg/mL, fixed, non-permeabilized cells
Protocol: as §1, §2

[3] = system: human ovarian cancer OVCAR-3 cells; conditions: for relative binding (reactivity) to intact cells, cell-ELISA: OVCAR-3 (resistant to adriamycin, melphalan, cisplatin), mAb 1 μg/mL, fixed, non-permeabilized cells
Protocol: as §1, §2

[4] = system: human pancreatic cancer MIA PaCa-2 cells; conditions: for binding to intact, EDTA-released MiaPaCa-2 cells, cell-ELISA: EDTA 10 mmols, pH 7.2, 5 min, 37° C.; for relative binding (reactivity) to intact cells, cell-ELISA: MIA PaCa-2, mAb 1 μg/mL, fixed, non-permeabilized cells; for binding to intact MIA PaCa-2 cells when competed with NMC-P2 peptide / binding to intact MIA PaCa-2 cells when competed with soluble NMC-P1 peptide: cell-ELISA peptide competition
Protocol: as §1, §2

[5] = system: mouse Lewis Lung LL/2 cells; conditions: for relative binding (reactivity) to intact cells, cell-ELISA: LL/2, mAb 1 μg/mL, fixed, non-permeabilized cells
Protocol: as §1, §2

[6] = system: mouse colon cancer MC-38 cells; conditions: for relative binding (reactivity) to intact cells, cell-ELISA: MC-38, mAb 1 μg/mL, fixed, non-permeabilized cells
Protocol: as §1, §2

[7] = system: mouse pancreatic Panc02 cells; conditions: for relative binding (reactivity) to intact cells, cell-ELISA: Panc02, mAb 1 μg/mL, fixed, non-permeabilized cells
Protocol: as §1, §2

[8] = system: primary patient-derived human ovarian cancer OVCA4 cells; conditions: for relative binding (reactivity) to intact cells, cell-ELISA: OVCA4, mAb 1 μg/mL, fixed, non-permeabilized cells
Protocol: as §1, §2

Row | Molecule | relative binding (reactivity) to intact cells, cell-ELISA [1] | relative binding (reactivity) to intact cells, cell-ELISA [2] | relative binding (reactivity) to intact cells, cell-ELISA [3] | binding to intact, EDTA-released MiaPaCa-2 cells, cell-ELISA [4] | relative binding (reactivity) to intact cells, cell-ELISA [4] | binding to intact MIA PaCa-2 cells when competed with NMC-P2 peptide [4] | binding to intact MIA PaCa-2 cells when competed with soluble NMC-P1 peptide [4] | relative binding (reactivity) to intact cells, cell-ELISA [5] | relative binding (reactivity) to intact cells, cell-ELISA [6] | relative binding (reactivity) to intact cells, cell-ELISA [7] | relative binding (reactivity) to intact cells, cell-ELISA [8] | binding to intact MIA PaCa-2 cells after pre-incubation with full-length recombinant HDM2 ([4]; cell-ELISA competition) | binding to intact, un-permeabilized cells, cell-based ELISA ([1]; MCF-7 breast cancer cells, mAb 5 μg/mL) | binding to intact, un-permeabilized cells, cell-based ELISA ([2]; mAb 5 μg/mL) | binding to intact, un-permeabilized cells, cell-based ELISA ([3]; OVCAR-3 ovarian cancer cells, mAb 5 μg/mL) | binding to intact, un-permeabilized cells, cell-based ELISA ([4]; MIAPaCa-2 pancreatic cancer cells, mAb 5 μg/mL) | OD reading / binding after pre-incubation of antibody with NMC-P1 ([5]; LL/2 cells, antibody 5 μg/mL, NMC-P1 at ×10 the concentration of mAbs) | binding to intact, un-permeabilized cells, cell-based ELISA ([6]; MC-38 colon cancer cells, mAb 5 μg/mL) | binding to intact, un-permeabilized cells, cell-based ELISA ([7]; Panc-2 pancreatic cancer cells, mAb 5 μg/mL) | binding to intact, un-permeabilized cells, cell-based ELISA ([8]; OVCA-4 ovarian cancer cells, mAb 5 μg/mL)
1 | B1 | reactivity | reactivity | reactivity | bound | reactivity; also recorded: reacted | competed | not with NMC-P1 | reactivity | reactivity | reactivity | reactivity |  |  |  |  |  |  |  |  | 
2 | B2 | reactivity | reactivity | reactivity | bound | reactivity | did not have any effect | completely abolished | reactivity | reactivity | reactivity | reactivity | reduced |  |  |  |  |  |  |  | 
3 | B3 |  |  |  |  |  |  |  |  |  |  |  |  | binding | binding | binding | binding | 1.09 OD450 (absorbance, unitless) | binding | binding | binding
